Experimental data: patent US20180016327A1 (Chugai, published 2018)

Biological target: T1, human C5 (human, UniProt P01031 19-673; P01031 678-1676, Beta and alpha chains are disulfide-linked and the protein is glycosylated.)
T1 construct: Either in-house recombinant C5 or plasma derived C5 (CALBIOCHEM) was used; also called recombinant human C5; plasma derived human C5
Assay: Biacore, captured antibody, pH 7.4, 37 C;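 further: biacore binding response of anti-C5 antibody light chain variants captured on chip with human C5 injected, ACES running buffer containing 1.2 mM CaCl₂, parent light chain antibody set to 100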

Binder	% binding (parent = 100) [%]
CFP0011 11L 32Q (antibody, V domains shown) VH: QVQLVQSGAEVKKPGSSVKVSCKASGGTFSSYAISWVRQAPGQGLEWMGGIIPIFGTANYAQKFQGRVTITADESTSTAYMELSSLRSEDTAVYYCARDMSEFLGWSNYYSYPMDVWGQGTTVTVSS VL: DIQMTQSPSSLSASVGDRVTITCRASQSIEDQLAWYQQKPGKAPKLLIYHASSLQSGVPSRFSGSGSGTDFTLTISSLQPEDFATYYCQQSDNSPYTFGQGTKVEIK	18.4
CFP0011 11L 34N (antibody, V domains shown) VH: QVQLVQSGAEVKKPGSSVKVSCKASGGTFSSYAISWVRQAPGQGLEWMGGIIPIFGTANYAQKFQGRVTITADESTSTAYMELSSLRSEDTAVYYCARDMSEFLGWSNYYSYPMDVWGQGTTVTVSS VL: DIQMTQSPSSLSASVGDRVTITCRASQSIEDDLNWYQQKPGKAPKLLIYHASSLQSGVPSRFSGSGSGTDFTLTISSLQPEDFATYYCQQSDNSPYTFGQGTKVEIK	29.2
CFP0011 11L 50D (antibody, V domains shown) VH: QVQLVQSGAEVKKPGSSVKVSCKASGGTFSSYAISWVRQAPGQGLEWMGGIIPIFGTANYAQKFQGRVTITADESTSTAYMELSSLRSEDTAVYYCARDMSEFLGWSNYYSYPMDVWGQGTTVTVSS VL: DIQMTQSPSSLSASVGDRVTITCRASQSIEDDLAWYQQKPGKAPKLLIYDASSLQSGVPSRFSGSGSGTDFTLTISSLQPEDFATYYCQQSDNSPYTFGQGTKVEIK	58.2
CFP0011 11L 50E (antibody, V domains shown) VH: QVQLVQSGAEVKKPGSSVKVSCKASGGTFSSYAISWVRQAPGQGLEWMGGIIPIFGTANYAQKFQGRVTITADESTSTAYMELSSLRSEDTAVYYCARDMSEFLGWSNYYSYPMDVWGQGTTVTVSS VL: DIQMTQSPSSLSASVGDRVTITCRASQSIEDDLAWYQQKPGKAPKLLIYEASSLQSGVPSRFSGSGSGTDFTLTISSLQPEDFATYYCQQSDNSPYTFGQGTKVEIK	75.6
CFP0011 11L 50A (antibody, V domains shown) VH: QVQLVQSGAEVKKPGSSVKVSCKASGGTFSSYAISWVRQAPGQGLEWMGGIIPIFGTANYAQKFQGRVTITADESTSTAYMELSSLRSEDTAVYYCARDMSEFLGWSNYYSYPMDVWGQGTTVTVSS VL: DIQMTQSPSSLSASVGDRVTITCRASQSIEDDLAWYQQKPGKAPKLLIYAASSLQSGVPSRFSGSGSGTDFTLTISSLQPEDFATYYCQQSDNSPYTFGQGTKVEIK	95.2

More lines, now with the values ahead:

% binding (parent = 100) [%]	Binder
105	CFP0011 11L 53N (antibody, V domains shown) VH: QVQLVQSGAEVKKPGSSVKVSCKASGGTFSSYAISWVRQAPGQGLEWMGGIIPIFGTANYAQKFQGRVTITADESTSTAYMELSSLRSEDTAVYYCARDMSEFLGWSNYYSYPMDVWGQGTTVTVSS VL: DIQMTQSPSSLSASVGDRVTITCRASQSIEDDLAWYQQKPGKAPKLLIYHASNLQSGVPSRFSGSGSGTDFTLTISSLQPEDFATYYCQQSDNSPYTFGQGTKVEIK
98.9	CFP0011 11L 53T (antibody, V domains shown) VH: QVQLVQSGAEVKKPGSSVKVSCKASGGTFSSYAISWVRQAPGQGLEWMGGIIPIFGTANYAQKFQGRVTITADESTSTAYMELSSLRSEDTAVYYCARDMSEFLGWSNYYSYPMDVWGQGTTVTVSS VL: DIQMTQSPSSLSASVGDRVTITCRASQSIEDDLAWYQQKPGKAPKLLIYHASTLQSGVPSRFSGSGSGTDFTLTISSLQPEDFATYYCQQSDNSPYTFGQGTKVEIK
115	CFP0011 11L 53H (antibody, V domains shown) VH: QVQLVQSGAEVKKPGSSVKVSCKASGGTFSSYAISWVRQAPGQGLEWMGGIIPIFGTANYAQKFQGRVTITADESTSTAYMELSSLRSEDTAVYYCARDMSEFLGWSNYYSYPMDVWGQGTTVTVSS VL: DIQMTQSPSSLSASVGDRVTITCRASQSIEDDLAWYQQKPGKAPKLLIYHASHLQSGVPSRFSGSGSGTDFTLTISSLQPEDFATYYCQQSDNSPYTFGQGTKVEIK
